Measured values reported in PMC2958812, “Evidence for a Xer/dif System for Chromosome Resolution in Archaea”.

T1: XerA (Pab0255) (Pyrococcus abyssi, UniProt Q9V1P5 1-286)
T1 sequence: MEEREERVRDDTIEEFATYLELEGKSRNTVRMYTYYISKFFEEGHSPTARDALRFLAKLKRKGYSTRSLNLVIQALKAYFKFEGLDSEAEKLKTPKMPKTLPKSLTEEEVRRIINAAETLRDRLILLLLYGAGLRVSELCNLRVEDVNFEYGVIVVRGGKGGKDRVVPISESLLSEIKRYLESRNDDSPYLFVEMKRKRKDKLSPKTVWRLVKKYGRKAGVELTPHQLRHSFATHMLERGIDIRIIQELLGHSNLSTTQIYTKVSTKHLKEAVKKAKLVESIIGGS

B1: dif-Pab (dsDNA)
DNA 1: GTTAACTATATTGGATATAATCGGCCTTATATCTAAAGTGTTG
DNA 2: CAACACTTTAGATATAAGGCCGATTATATCCAATATAGTTAAC
B2: attP (SSV1 minimal) (dsDNA)
DNA 1: GTTAACTATCTTTTCCGCCTCCGGAGCCGGAGGTCCCGTGTTG
DNA 2: CAACACGGGACCTCCGGCTCCGGAGGCGGAAAAGATAGTTAAC

Columns and labels:
[1] = biological target: T1, XerA (Pab0255); assay: EMSA; 20 C; 0.5 ug poly(dIdC); EMSA: 0.5 uM labeled DNA, 50 mM Tris pH 7.5, 30 mM NaCl, 0.5 ug poly(dIdC).poly(dIdC), 20 ul, 30 min at 20 or 65 C; native PAGE in TGE at 4 C; conditions: protein: recombinant; tags: N-terminal His6 (MHHHHHH, from forward primer); label: 5'-32P on top strand; blunt
[2] = biological target: T1, XerA (Pab0255); assay: EMSA; 65 C; 0.5 ug poly(dIdC); EMSA: 0.5 uM labeled DNA, 50 mM Tris pH 7.5, 30 mM NaCl, 0.5 ug poly(dIdC).poly(dIdC), 20 ul, 30 min at 20 or 65 C; native PAGE in TGE at 4 C; conditions: protein: recombinant; tags: N-terminal His6 (MHHHHHH, from forward primer); label: 5'-32P on top strand; blunt

Binder	binding signal [1]	binding signal [2]
B1	4 fold complex formation vs attP	8 fold complex formation vs attP
B2	0.25 complex formation relative to dif-Pab (4 fold less)	0.125 complex formation relative to dif-Pab (8 fold less)
